# In publication PMC4812828 (Nature structural & molecular biology, 2016):
# T1: Mcm5 (S. cerevisiae, UniProt P29496 1-775)
# T1 sequence: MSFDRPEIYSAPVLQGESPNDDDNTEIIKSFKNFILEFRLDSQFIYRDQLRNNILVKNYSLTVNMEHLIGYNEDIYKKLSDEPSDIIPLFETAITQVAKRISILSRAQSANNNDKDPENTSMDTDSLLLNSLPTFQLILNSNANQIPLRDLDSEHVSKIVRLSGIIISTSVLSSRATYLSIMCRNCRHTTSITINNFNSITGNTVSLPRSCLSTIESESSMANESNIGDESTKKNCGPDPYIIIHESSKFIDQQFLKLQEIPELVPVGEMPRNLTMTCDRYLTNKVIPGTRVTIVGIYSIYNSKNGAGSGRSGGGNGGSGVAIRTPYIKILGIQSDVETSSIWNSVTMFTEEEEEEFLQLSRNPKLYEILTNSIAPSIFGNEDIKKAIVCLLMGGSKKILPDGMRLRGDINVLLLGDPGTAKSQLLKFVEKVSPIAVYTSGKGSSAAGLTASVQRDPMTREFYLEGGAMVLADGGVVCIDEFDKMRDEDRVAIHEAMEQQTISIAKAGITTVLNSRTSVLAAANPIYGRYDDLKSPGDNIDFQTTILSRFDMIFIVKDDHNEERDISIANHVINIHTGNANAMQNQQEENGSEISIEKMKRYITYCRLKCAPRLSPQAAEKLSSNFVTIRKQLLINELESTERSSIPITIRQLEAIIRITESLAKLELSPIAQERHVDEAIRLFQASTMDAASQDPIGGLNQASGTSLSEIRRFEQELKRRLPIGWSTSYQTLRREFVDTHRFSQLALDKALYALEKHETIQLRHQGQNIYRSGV
# Molecular target: T1, Mcm5
# Experiment: cryo-EM structure
binder,measurement,value
Psf3 (natural protein) MGYYDIDDVLADGTEFPCKFQYDIPGLGYLENNPGRPITKNTKLSLPLWLARILAIVGGDEALVDEEPVPFVELLPPDMFSTKVMNAIKTDPVALDLHSINSHFFSLAIKWIMLFSEKELANVVSELLLQRAQELNHHASSLSIDLNADSTGKNSANTNIATSTFLLKLEEMEKEIYKKSHESYKDTKRWMFKK,binding result,binds
